# T1: recombinant tetanus toxin fragment C (rTTC) (Clostridium tetani, UniProt P04958 865-1315)
# T1 sequence: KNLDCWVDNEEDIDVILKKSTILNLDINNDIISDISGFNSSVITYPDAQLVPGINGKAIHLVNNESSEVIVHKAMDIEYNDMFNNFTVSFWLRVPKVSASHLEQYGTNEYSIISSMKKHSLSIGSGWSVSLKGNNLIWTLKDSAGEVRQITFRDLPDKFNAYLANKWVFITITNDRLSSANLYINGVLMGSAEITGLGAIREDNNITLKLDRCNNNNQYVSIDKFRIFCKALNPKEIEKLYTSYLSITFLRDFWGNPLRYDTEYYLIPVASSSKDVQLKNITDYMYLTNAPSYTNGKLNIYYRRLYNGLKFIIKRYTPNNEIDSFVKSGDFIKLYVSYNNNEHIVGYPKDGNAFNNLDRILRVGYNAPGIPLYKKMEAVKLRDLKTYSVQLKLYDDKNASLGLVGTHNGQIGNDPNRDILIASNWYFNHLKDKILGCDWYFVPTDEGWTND
# T2: recombinant tetanus toxin fragment C (rTTC) (Clostridium tetani, UniProt P04958 865-1315)
# T2 sequence: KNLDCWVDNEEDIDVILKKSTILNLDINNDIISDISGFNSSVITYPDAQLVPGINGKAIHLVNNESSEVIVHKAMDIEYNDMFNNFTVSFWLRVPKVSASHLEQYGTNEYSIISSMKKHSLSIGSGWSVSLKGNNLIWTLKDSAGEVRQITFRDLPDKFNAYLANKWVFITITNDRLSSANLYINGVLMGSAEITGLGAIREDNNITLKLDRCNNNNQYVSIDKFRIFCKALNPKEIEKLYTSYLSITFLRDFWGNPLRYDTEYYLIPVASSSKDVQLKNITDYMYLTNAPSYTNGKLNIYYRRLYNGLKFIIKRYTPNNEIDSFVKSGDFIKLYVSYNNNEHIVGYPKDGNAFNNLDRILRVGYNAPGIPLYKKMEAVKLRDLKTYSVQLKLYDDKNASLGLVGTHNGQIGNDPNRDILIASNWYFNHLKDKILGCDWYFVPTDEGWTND
# Columns and labels:
# [1] = target: T3, tetanus neurotoxin (TeNT), authentic tetanus holotoxin (Clostridium tetani, UniProt P04958 2-1315); assay: ELISA, directly coated TeNT, E. coli supernatant
# T3 sequence (P04958 2-457 limits assumed, chain 1 of 2): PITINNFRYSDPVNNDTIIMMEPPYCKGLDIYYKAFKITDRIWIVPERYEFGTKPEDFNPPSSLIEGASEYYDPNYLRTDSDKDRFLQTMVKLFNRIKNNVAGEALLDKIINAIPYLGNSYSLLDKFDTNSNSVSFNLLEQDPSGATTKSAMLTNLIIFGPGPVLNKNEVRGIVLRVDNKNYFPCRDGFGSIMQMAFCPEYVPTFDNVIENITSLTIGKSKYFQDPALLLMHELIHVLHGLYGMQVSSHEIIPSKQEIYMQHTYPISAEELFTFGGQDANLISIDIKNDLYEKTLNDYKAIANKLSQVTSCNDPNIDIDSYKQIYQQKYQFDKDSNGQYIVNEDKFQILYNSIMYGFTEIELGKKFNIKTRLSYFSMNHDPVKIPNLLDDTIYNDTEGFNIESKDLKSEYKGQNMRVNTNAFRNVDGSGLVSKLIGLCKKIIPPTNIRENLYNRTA
# T3 sequence (P04958 458-1315 limits assumed, chain 2 of 2): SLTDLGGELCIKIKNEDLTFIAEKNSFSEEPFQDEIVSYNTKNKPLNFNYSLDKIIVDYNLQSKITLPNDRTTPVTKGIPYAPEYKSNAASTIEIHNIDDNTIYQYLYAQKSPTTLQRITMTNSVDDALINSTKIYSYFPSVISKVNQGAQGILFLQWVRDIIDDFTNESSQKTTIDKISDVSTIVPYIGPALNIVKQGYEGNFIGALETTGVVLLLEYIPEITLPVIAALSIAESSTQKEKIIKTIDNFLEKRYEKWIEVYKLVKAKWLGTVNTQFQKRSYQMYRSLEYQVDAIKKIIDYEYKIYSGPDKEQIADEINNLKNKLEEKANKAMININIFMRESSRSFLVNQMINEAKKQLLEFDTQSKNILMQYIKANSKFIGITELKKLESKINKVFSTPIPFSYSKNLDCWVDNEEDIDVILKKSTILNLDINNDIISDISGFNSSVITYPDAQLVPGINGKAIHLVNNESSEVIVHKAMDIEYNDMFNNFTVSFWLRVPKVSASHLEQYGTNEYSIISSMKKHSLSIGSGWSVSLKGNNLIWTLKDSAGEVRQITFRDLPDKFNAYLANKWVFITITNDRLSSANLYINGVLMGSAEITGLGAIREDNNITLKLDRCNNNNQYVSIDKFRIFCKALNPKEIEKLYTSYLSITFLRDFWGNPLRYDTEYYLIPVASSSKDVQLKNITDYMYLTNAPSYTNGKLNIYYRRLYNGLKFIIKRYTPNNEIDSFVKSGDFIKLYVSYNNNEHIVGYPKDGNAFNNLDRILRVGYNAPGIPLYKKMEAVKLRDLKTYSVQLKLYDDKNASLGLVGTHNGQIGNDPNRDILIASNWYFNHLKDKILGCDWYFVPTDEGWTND
# [2] = target: T3, tetanus neurotoxin (TeNT), authentic …; assay: ELISA, cAb-TT2 captured TeNT, E. coli supernatant
# [3] = target: T3, tetanus neurotoxin (TeNT), authentic …; assay: GT1b-TeNT inhibition ELISA (no SDA: 1.302, 1.257)
# [4] = target: T1, recombinant tetanus toxin fragment C …; assay: ELISA, directly coated rTTC, E. coli supernatant
# [5] = target: T2, recombinant tetanus toxin fragment C …; assay: ELISA, directly coated rTTC, unlabelled binder
# [6] = target: T4, tetanus neurotoxin (TeNT), authentic tetanus holotoxin (Clostridium tetani, UniProt P04958 2-1315); assay: GT1b-TeNT inhibition ELISA, EC at A450 0.59
# T4 sequence (P04958 2-457 limits assumed, chain 1 of 2): as the sequence (P04958 2-457 limits assumed, chain 1 of 2) above
# T4 sequence (P04958 458-1315 limits assumed, chain 2 of 2): as the sequence (P04958 458-1315 limits assumed, chain 2 of 2) above
# [7] = target: T4, tetanus neurotoxin (TeNT), authentic …; assay: GT1b-TeNT inhibition ELISA, unlabelled binder
# [8] = target: T4, tetanus neurotoxin (TeNT), authentic …; assay: ELISA, directly coated TeNT, unlabelled binder
# [9] = target: T4, tetanus neurotoxin (TeNT), authentic …; assay: ELISA, TeNT captured with cAb-TT2, biotinylated binder
# [10] = target: T4, tetanus neurotoxin (TeNT), authentic …; assay: ELISA, directly coated TeNT, biotinylated binder
# [11] = target: T4, tetanus neurotoxin (TeNT), authentic …; assay: ELISA, TeNT captured with cAb-TT2, unlabelled binder
Binder,absorbance at 450 nm [1],absorbance at 450 nm [2],absorbance at 450 nm [3],absorbance at 450 nm [4],maximal absorbance at 450 nm [5],concentration giving A450 of 0.59 [6],minimal absorbance at 450 nm [7],EC resulting in A450 0.2 [8],maximal absorbance at 450 nm [8],EC resulting in A450 0.2 [9],maximal absorbance at 450 nm [9],EC resulting in A450 0.4 [10],maximal absorbance at 450 nm [10],EC resulting in A450 0.15 [11],maximal absorbance at 450 nm [11]
SVT16 (VHH) VHH: QVQLQESGGGSVQAGDSLRLSCAASGRTISNYAMGWFRQAPGKQREFVAAISRSDNTYYTDSVKGRFTISRDNAKNTLYLQMNSLKPEETAVYYCAADPNLMYESKWKYRALEAWGQGTLVTVSS,1.04 A450,0.736 A450,0.12 A450,0.151 A450,,,,,,,,,,,
SVT25L (VHH) VHH: QVQLQESGGGLVQAGGSLRLSCAASGRTISVYAMGWFRQAPGKQREFVAAISRSDNTYYTDSVKGRFTISRDNVKNTLYLQMNSLKPEETAVYYCAADPNLMYETKWKYRALEAWGQGTLVTVSS,,,,,0.936,0.133 µg/mL,0.106,3.6 ng/mL,1.56,84 ng/mL,0.302,43 ng/mL,0.985,6.4 ng/mL,0.362
SVT25 (VHH) VHH: QVQLQESGGGLVQAGGSLRLSCAASGRTISVYAMGWFRQAPGKQREFVAAISRSDNTYYTDSVKGRFTISRDNVKNTLYLQMNSLKPEETAVYYCAADPNLMYETKWKYRALEAWGQGTLVTVSS,1.14 A450,0.427 A450,0.139 A450,0.211 A450,,,,,,,,,,,
SVT29L (VHH) VHH: QVQLQESGGGLVQTGGSLTLSCRAYGRAFDNYHFGWFRQAPGKDREFVASISWKGGSTYRANFALGRFTSSVNRGESSVYLHMSGLTPEDTATYYCAAHDGGDWNYHTGMDYWGKGILVTVSS,,,,,0.58,0.114 µg/mL,0.135,2.6 ng/mL,1.52,14 ng/mL,0.596,6.9 ng/mL,1.13,6.3 ng/mL,0.429
SVT15 (VHH) VHH: QVQLQESGGGLVQTGGSLRLSCRASGRAFANYHFGWFRQAPGKDREFVASISWKGGSTYYANFALGRFTSSVDRAESSVYLQMSGLTPEDTATYYCAAHDGGDWNYHTGMDYWGKGILVTVSS,1.03 A450,0.68 A450,0.19 A450,0.099 A450,,,,,,,,,,,
SVT31L (VHH) VHH: QVQLQESGGGSVQAGGSLTLSCAASEFSYNDYTIAWFRRAAGKGRVEDGEGVASITKSYDRAYDNRIHYADSVKGRFTISRDNAKNTVYLQMTSLNPSDTAVYYCALDITPPGGIGASLTEGFLFDYWGQGTQVTVSS,,,,,0.483,0.986 µg/mL,0.568,2.4 ng/mL,1.32,1.5 ng/mL,1.03,0.98 ng/mL,1.43,4.3 ng/mL,0.27
SVT08 (VHH) VHH: QVQLQESGGGSVQAGGSLRLSCTASEFSYNDYTIAWFRRAAGKGRVEDGEGVASITTSYDRAYDNRIHYGDSVKGRFTISRDNAKNTVYLQMTNLNPSDTAVYYCGLDITPPGGIGASLTEGFLFDYWGQGTQVTVSS,1.07 A450,0.51 A450,0.746 A450,0.13 A450,,,,,,,,,,,
SVT06 (VHH) VHH: QVQLQESGGGSVQAGGSLRLSCTASELSYDDYTIAWFRRAAGEGRVEDGEGVASITKSYDRAYDNKINYGHSVKGRFTISRDNAKNTVYLQMTDLLPSDTAVYYCALDITPPGGVGASLTEGFLFDYWGQGTQVTVSS,1.04 A450,0.683 A450,0.72 A450,0.105 A450,,,,,,,,,,,
SVT31 (VHH) VHH: QVQLQESGGGSVQAGGSLTLSCAASEFSYNDYTIAWFRRAAGKGRVEDGEGVASITKSYDRAYDNRIHYADSVKGRFTISRDNAKNTVYLQMTSLNPSDTAVYYCALDITPPGGIGASLTEGFLFDYWGQGTQVTVSS,1.38 A450,1.09 A450,0.105 A450,0.218 A450,,,,,,,,,,,
SVT20 (VHH) VHH: QVQLQQSGGGLVQAGGSLRLSCAASGRTMSSYAMGWFRQAPGKQREFVAAISRSGGNTYYTDSVKGRFTISRDNAKNTLYLQMNSLKPEETAVYYCAADPNLMYESKWKYRALEAWGQGTLVTVSS,1.08 A450,0.685 A450,0.132 A450,0.165 A450,,,,,,,,,,,
SVT20L (VHH) VHH: QVQLQQSGGGLVQAGGSLRLSCAASGRTMSSYAMGWFRQAPGKQREFVAAISRSGGNTYYTDSVKGRFTISRDNAKNTLYLQMNSLKPEETAVYYCAADPNLMYESKWKYRALEAWGQGTLVTVSS,,,,,0.967,0.039 µg/mL,0.117,1.2 ng/mL,1.54,4.5 ng/mL,0.535,2.1 ng/mL,1.2,3.1 ng/mL,0.327
SVT34 (VHH) VHH: QVQLQESGGGLVQPGGSLRLSCAASGRTISSYAMGWFRQAPGKQREFVAAISRSGGNTYYTDSVKGRFIISRDNAKNTLYLQMNNLKPEETAVYYCAADPNLMYESKWKYRALEAWGQGTLVTVSS,1.43 A450,0.483 A450,0.117 A450,0.16 A450,,,,,,,,,,,
SVT05L (VHH) VHH: QVQLQESGGGLVQPGGSLRLSCSASGFSFTDDYGIGWFRSGPGKGREAVAPIADREAVAAIALSDGNTYYSASAKGRFTISRDNAKSTAYLQMNNLKPEDTATYYCAADFWGYGMSWPMATLWEYWGQGIQVTVSS,,,,,0.604,> 1 µg/mL,0.655,0.51 ng/mL,1.29,1.7 ng/mL,0.622,0.98 ng/mL,1.26,0.86 ng/mL,0.375

# — patent publication US20240376185A1 (SMIVET B V, published 2024)
